From article PMC4112642, “Tomato PYR/PYL/RCAR abscisic acid receptors show high expression in root, differential sensitivity to the abscisic acid agonist quinabactin, and the capability to enhance plant drought resistance” (Journal of Experimental Botany, 2014) come the findings set out here.

For series [1], the target named is 6g061180 tomato ABA receptor, recombinant, purified for size exclusion chromatography (tomato (Solanum lycopersicum)). Put plainly: SEC; Superdex200 10/30 in 25mM TRIS-HCl pH 8.0, 200mM NaCl, 5mM beta-mercaptoethanol, in the absence of ABA; about 1mg loaded of 8g076960, 6g061180 or 6g050500 (concentrated to 10mg ml^-1), 0.1mg of 12g055990 (0.7mg ml^-1).
Series [2] concerns the target 8g076960 tomato ABA receptor, recombinant, purified for size exclusion chromatography (tomato (Solanum lycopersicum)). The series is described as above.
The target of series [3] is T1, 6g061180 (Sl06g061180) with ΔN 12g096020 (Solanum lycopersicum, UniProt A0A3Q7HQZ7).
T1 construct: gene LOC101267127; PP2C N-terminally deleted catalytic core 178-509; with Protein phosphatase 2C HAB1-like (clade A)
T1 sequence (A0A3Q7HQZ7 entry or part of it, stated change not applied): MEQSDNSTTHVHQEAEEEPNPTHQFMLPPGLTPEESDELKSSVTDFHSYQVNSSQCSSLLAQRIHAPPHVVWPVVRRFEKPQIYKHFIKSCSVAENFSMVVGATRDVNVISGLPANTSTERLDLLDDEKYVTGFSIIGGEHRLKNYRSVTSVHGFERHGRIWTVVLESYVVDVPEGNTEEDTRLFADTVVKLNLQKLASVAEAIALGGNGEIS
Put plainly: receptor-mediated PP2C inhibition, RRA(phosphoT)VA phosphopeptide, molybdate dye. The class given is biochemical. Conditions: agonist; 0.5 μM PP2C, 2 μM receptor, 0.1-10 μM ligand; 10 mM MgCl2, pH 7.5, 30 °C.

In series [4] the target is T2, 8g076960 (Sl08g076960) with ΔN 12g096020 (Solanum lycopersicum, UniProt A0A3Q7HTY9).
T2 construct: gene LOC101268417; PP2C N-terminally deleted catalytic core 178-509; with Protein phosphatase 2C HAB1-like (clade A)
T2 sequence (A0A3Q7HTY9 entry or part of it, stated change not applied): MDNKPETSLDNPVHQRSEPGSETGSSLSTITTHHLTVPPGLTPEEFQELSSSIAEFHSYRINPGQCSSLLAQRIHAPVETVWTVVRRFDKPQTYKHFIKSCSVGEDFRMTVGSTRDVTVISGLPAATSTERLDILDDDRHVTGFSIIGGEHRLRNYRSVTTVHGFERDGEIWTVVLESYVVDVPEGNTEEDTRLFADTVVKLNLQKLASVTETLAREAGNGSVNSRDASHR
The series is described as above. The conditions noted are these: agonist; 0.5 μM PP2C, 2 μM receptor, 0.1-10 μM ligand; 10 mM MgCl2, pH 7.5, 30 °C. The class given is biochemical.

Series [5] concerns the molecule itself. Put plainly: SEC; Superdex200 10/30 in 25mM TRIS-HCl pH 8.0, 200mM NaCl, 5mM beta-mercaptoethanol, in the absence of ABA; about 1mg loaded of 8g076960, 6g061180 or 6g050500 (concentrated to 10mg ml^-1), 0.1mg of 12g055990 (0.7mg ml^-1).

For “6g061180 tomato ABA receptor, recombinant, purified for size exclusion chromatography”, in series [1], the stoichiometry N (in general, the number of molecules, sites or subunits per partner or assembly) worked out at 2.
On to “8g076960 tomato ABA receptor, recombinant, purified for size exclusion chromatography”, for which the stoichiometry N in series [2] was 2.
On to `CCCN1C(=O)CCc2cc(NS(=O)(=O)Cc3ccc(C)cc3)ccc21` [quinabactin], for which the “% PP2C activity” value in series [3] was “efficiently through the dimeric tomato receptors 8g076960 and 6g061180”; in series [4], “QB inhibited (compared with ABA) ΔN12g096020 phosphatase activity efficiently through the dimeric tomato receptors 8g076960”.

B1: 6g050500 tomato ABA receptor, recombinant, purified for size exclusion chromatography (receptor)
chain: MPSSLQLHRINPTTATLAVKQPQLSQATTWFSPVSTSVPDNVLHHHTHVVGPNQCCSAVLQSISAPIDTVWSLVRRFDNPQAYKHFLKSCHVIVGDGDVGTLREVRVVSGLPAGSSTERLEILDDEKHVLSFSVVGGDHRLNNYRSVTTLHRAAEEGSTVVVESYVVDVPQGNTKEETCVFVDTIVRCNLQSLAQIAQNLAKTSKNHDEDPQLKIHRLVDFV
For B1, the “stoichiometry N” value in series [5] came out at 2.
